Test results as given in the supplement of paper PMC10567573.

B1: PTPN9 (parent)
chain: TQHLPRECLPENLGGYVKIDLATW
B2: KRT13 (parent)
chain: TSSASVTTTSNASGRRTSDVRRP
B3: ZNF449 (parent)
chain: HTGERPYECTVCKKRFTRRSHLIG

Variants of: B1
Assay: protein stability index of a GFP-peptide fusion (GPS, HEK-293T) (PSI 1-6); higher = more stable
Settings: c terminus: a fixed tail appended
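Further: lentivirally expressed fusions sorted by FACS into six bins by GFP to DsRed ratio, PSI derived from sequencing read proportions per bin multiplied by bin number.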

Protein stability index of substitutions, site by site:
W24: V 2.06, Y 1.91, S 3.06, T 3, Q 3.13, R 2.61

Variants of: B2
Assay: as above
Settings: c terminus: native

Protein stability index: each site, then its substitutions
T17: I 3.61, H 2.66, L 1.45, N 2.15, E 1.63, M 2.44, D 2.62, S 2.16, Y 2.3, C 2.94
T9: D 2.05, F 2.13, H 3.88, K 2.19, V 2.72, N 1.81, C 1.54, G 1.73, E 2.58, P 1.97
A4: W 2.44, K 3.21, Y 2.51, N 2.16, H 2.6, P 1.7, T 2.02, Q 2.03, E 2.39, G 2.25, D 3.4, S 1.03, I 3.97, L 3.6
R16: Q 1.52, N 2.05, M 2.14, T 3.07, Y 3.97, C 1.27, K 1.59, D 1.66, A 1.65, S 2.11, G 1.04, H 2.37, I 2.33, E 2.08, P 2.52, W 2.87, F 2.27
G14: R 2.21, Y 2.32, I 2.46, L 3.71, E 2.97, V 2.64, C 1.75, S 3.57, T 2.3, Q 2.23, D 1.88, P 1.88, A 3.4, N 2.03, M 3.29
S3: G 3.79, K 2.86, C 1.96, A 2.61, L 1.99, H 2.54, V 1.93, Q 2.19, Y 1.46, W 1.65, I 2.32, D 2.57, T 1.81, E 2.8
R21: P 5.33, F 5.07, Y 5.15, L 4.89, D 5.12, M 5.27, S 5.41, T 5.55, V 4.97, K 5.25, W 5.35, N 5.24, Q 5.75, I 4.91, H 5.55, C 4.97, A 5.32, E 5.51
N11: G 2.7, R 2.36, V 1.98, E 3.41, K 1.86, D 1.71, Y 3.34, L 2.98, H 1.8, A 3.09, T 2.74, F 2.92, I 1.08, P 1.12
D19: T 2.69, P 2.86, I 2.44, R 2.08, M 3.59, S 2.07, H 1.73, N 2.26, V 3.02, Y 1.92, L 2.61, K 2.25, C 2.52, F 2.83
S10: D 2.05, H 2.48, P 2.11, V 2.99, F 2.96, T 1.6, C 4.58, Q 2.12, Y 1.98, E 2.03
T1: I 2.25, D 2.46, E 2.33, H 2.22, N 1.34, Y 3.12, A 3.56, V 2.42, Q 2.54, W 2.43, F 4.09
V20: C 2.16, P 2.31, H 2.51, A 1.63, D 1.76, E 2.52, K 2.73, T 4.51, N 2.13, Y 2.38, I 4.34, Q 2.06, G 2.03
R22: N 3.07, I 2.77, A 2.49, L 1.38, H 3.45, T 1.84, D 1.93, Q 2.71, M 3.05, S 1.88, P 2.62, W 2.04, Y 1.75, V 2.08, E 1.75, K 2.13
A12: S 2.19, H 3.71, P 2.25, I 2.81, F 3.48, L 2.53, D 3.12, C 3.03
S5: M 1.88, H 3.91, E 3.07, Q 2.59, N 2.44, C 3.15, K 1.9, F 3.27, T 4.31, D 2.48, G 2.79, A 2.49, I 2.37
S18: E 2.45, V 3.51, P 2.02, K 1.3, D 2.19, F 1.56, M 1.77, L 2.03, G 1.23, T 2.85, Q 2.82, A 4.56
P23: E 1.59, S 2.36, W 4.6, Y 4.86, M 4.45, Q 3.43, F 4.92, C 2.42, L 4.45, G 3.15, R 3.9, T 4.53, I 4.47, N 2.27, K 4.84, H 1.77
S13: A 2.97, L 2.47, R 1.4, W 1.04, D 1.45, P 2.41, K 1.94, E 1.7, G 1.7, T 5.7, V 3.04, Q 1.37
S2: E 3.22, D 2.46, Y 2.08, N 3.25, K 3.48, G 2.56, T 2.82, F 2.04, Q 1.06, L 2.02, P 3.07, V 3.9
V6: A 2.14, D 2.88, K 2.39, G 2.71, Q 1.69, P 2.51, R 1.97, S 1.09, N 2.44, L 2.31, F 1.93, T 3.08, C 4.46
T7: G 1.17, L 2.23, I 1.93, Q 1.3, Y 4.47, F 2.24, N 1.45, A 2.46, M 3.08, P 1.66, D 3.4, R 2.97, K 2.19, H 2.54, W 3.38
T8: A 3.85, D 2.08, P 1.64, G 2.26, K 3.7, E 3.31, F 2.35, N 2.98, Q 3.25, Y 3.44
R15: K 1.49, P 1.73, L 2.37, H 2.61, I 2.36, F 1.88, Q 2.53, Y 2.03, T 1.94, E 2.43, N 2.6, A 2.17, D 2.25, C 2.17

Variants of: B3
Assay: as above
Settings: c terminus: a fixed tail appended

Protein stability index: each site, then its substitutions
T2: K 2.4, E 2.94, D 2.23, I 1.47, F 2.08, H 3.18, C 1.42, M 1.76, G 2.55, A 2.85, L 2.45
H1: V 2.39, C 2.48, G 1.83, Y 2.98, T 1.7, D 2.19, E 2.6, M 2.96, K 2.6, A 2.47, P 2.59, I 1.74, W 2, L 1.79, F 1.78, S 1.85
